Measured values taken from patent publication US20180271992A1.

B1: hRS7-CL2-SN-38 antibody-drug conjugate (antibody, INN chains, looked up, V domains shown)
VH: QVQLQQSGSELKKPGASVKVSCKASGYTFTNYGMNWVKQAPGQGLKWMGWINTYTGEPTYTDDFKGRFAFSLDTSVSTAYLQISSLKADDTAVYFCARGGFGSSYWYFDVWGQGSLVTVSS
VL: DIQLTQSPSSLSASVGDRVSITCKASQDVSIAVAWYQQKPGKAPKLLIYSASYRYTGVPDRFSGSGSGTDFTLTISSLQPEDFAVYYCQQHYITPLTFGAGTKVEIK
modifications: SN-38 via CL2 linker

Key:
human Trop-2 (human) [1] = molecular target: human Trop-2 (human) (UniProt P09758); test: cell binding assay on Trop-2 expressing cells, cell line not named
human Trop-2 (human) [2] = molecular target: human Trop-2 (human) (UniProt P09758); test: cell binding on NCI-N87 cells, anti-mouse-HRP secondary, luminescence
human Trop-2 (human) [3] = molecular target: human Trop-2 (human) (UniProt P09758); test: cell binding on NCI-N87 cells, maximum binding compared to murine RS7

Sequence of human Trop-2 (human) (P09758 27-323): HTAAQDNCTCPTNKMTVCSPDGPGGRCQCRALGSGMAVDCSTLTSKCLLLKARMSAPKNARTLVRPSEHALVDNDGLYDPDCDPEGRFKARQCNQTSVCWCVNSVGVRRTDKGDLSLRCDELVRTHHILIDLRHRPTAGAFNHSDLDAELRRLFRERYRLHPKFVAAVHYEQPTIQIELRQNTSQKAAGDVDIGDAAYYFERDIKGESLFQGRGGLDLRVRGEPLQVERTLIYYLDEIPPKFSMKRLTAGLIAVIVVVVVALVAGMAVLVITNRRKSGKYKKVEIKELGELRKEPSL

Kd (human Trop-2 (human) [1])	BMax (maximum binding) (relative luminescent units) (human Trop-2 (human) [2])	Kd (human Trop-2 (human) [2])	reduction of maximum binding relative to RS7 (human Trop-2 (human) [3])	Molecule
1.2 nM				hRS7-CL2A-SN-38 antibody-drug conjugate
	6020	0.49 nM	50%	MAB650 murine monoclonal antibody against human Trop-2
	8470		25%	162-46.2 murine monoclonal antibody against human Trop-2
1.2 nM				B1
